Experiments:
[1] = biological target: T1, Gap1 peptide 222-236 with V232 replaced by E (substitution scan) (S. cerevisiae, UniProt P19145 222-236, 232V replaced by E); assay: peptide or protein array; PEPperCHIP substitution scan of …, 300 peptides in triplicate; 100 or 500 µg/ml GST-Sch9 or GST, 16 h at 4°C; detected with anti-GST DyLight680; settings: both partners purified
T1 construct: source: synthesised on the PEPperCHIP substitution peptide microarray (PEPperPRINT)
T1 peptide (looked up): GVKGYGEAEFEFSFI

[2] = biological target: T2, Gap1 peptide 222-236 with S234 replaced by E (substitution scan) (S. cerevisiae, UniProt P19145 222-236, S234E); assay: as above; settings: both partners purified
T2 construct: source: synthesised on the PEPperCHIP substitution peptide microarray (PEPperPRINT)
T2 peptide (looked up): GVKGYGEAEFVFEFI

fold change of spot intensity against the wild type peptide [1]: 3 fold | fold change of spot intensity against the wild type peptide [2]: > 5 fold
B1: GST-tagged Sch9 (GST-Sch9) (enzyme, S. cerevisiae, UniProt P11792 1-824, looked up)
chain: MMNFFTSKSSNQDTGFSSQHQHPNGQNNGNNNSSTAGNDNGYPCKLVSSGPCASSNNGALFTNFTLQTATPTTAISQDLYAMGTTGITSENALFQMKSMNNGISSVNNNNSNTPTIITTSQEETNAGNVHGDTGGNSLQNSEDDNFSSSSTTKCLLSSTSSLSINQREAAAAAYGPDTDIPRGKLEVTIIEARDLVTRSKDSQPYVVCTFESSEFISNGPESLGAINNNNNNNNNNQHNQNQHINNNNENTNPDAASQHHNNNSGWNGSQLPSIKEHLKKKPLYTHRSSSQLDQLNSCSSVTDPSKRSSNSSSGSSNGPKNDSSHPIWHHKTTFDVLGSHSELDISVYDAAHDHMFLGQVRLYPMIHNLAHASQHQWHSLKPRVIDEVVSGDILIKWTYKQTKKRHYGPQDFEVLRLLGKGTFGQVYQVKKKDTQRIYAMKVLSKKVIVKKNEIAHTIGERNILVTTASKSSPFIVGLKFSFQTPTDLYLVTDYMSGGELFWHLQKEGRFSEDRAKFYIAELVLALEHLHDNDIVYRDLKPENILLDANGNIALCDFGLSKADLKDRTNTFCGTTEYLAPELLLDETGYTKMVDFWSLGVLIFEMCCGWSPFFAENNQKMYQKIAFGKVKFPRDVLSQEGRSFVKGLLNRNPKHRLGAIDDGRELRAHPFFADIDWEALKQKKIPPPFKPHLVSETDTSNFDPEFTTASTSYMNKHQPMMTATPLSPAMQAKFAGFTFVDESAIDEHVNNNRKFLQNSYFMEPGSFIPGNPNLPPDEDVIDDDGDEDINDGFNQEKNMNNSHSQMDFDGDQHMDDEFVSGRFEI
notes: Sch9 protein kinase of yeast, expressed from pGEX-Sch9 (pGEX-4T-1-Sch9); Plasmid from J. Bergsma; also called GST-Sch9p; source: purified from E. coli (peptide microarrays); not shown: GST, N-terminal, kept
